Earlier results, collected in article PMC2742733.

Molecular target: TEM-8 (Homo sapiens) (UniProt Q9H6X2)

Protective antigen (PA) (from UniProt P13423)
Kd: 0.13 µM
